Patent US6924101B2, “Methods for identifying anti-microbial agents” (priority 1997, dated 2005)

B1: pJB59: pLEX5BA with a 451 bp EcoRI/BamHI fragment of orf1/ampG in antisense orientation; expresses antisense RNA (SEQ ID NO: 7) (nucleic acid)
antisense: GAAUUCGUGGAUGCUGGUGUCCUGAGACAUAUCAGCGAUGGUAUCGGUCAGCACACUGUUAACCGCAUCGGCGAUAUUUUUGUUGGAGGCCUGGAACGCACCUUCAACGUUGUAGCUGGCACGAUAGUUUUUGGUCAUUUUGUUGCCAUUCUGCGCGGUAGCGAUGAUGGCGAUAUCCGCUUUGGUCGCGAUGUUGUAGCGCACGUUGCCCUGGGACACGUCAGCAUACAGUUGGCUAACGAUGAUUUGCAGAUUAACCGGGCCAUUCGGACCAACCAUGUAACCACGCGCGGUCAUCUGUUUUUCCAGCACUUCUUGCAGCAGGAAACGCAGAUCGCGGGAGGCGGUCAGGGUAACGAUUUGAUUAUCGCGGGUGACUUUUGCCAGCGCCUGAUCGGUACGCUGAUCGGCACCAUUAAUGCUUACGGUGACGCCCAUCAGGCUUGGAUCC
modifications: expressed from plasmid pLEX5BA; Escherichia coli ampG
B2: pJB53: pLEX5BA with a 714 bp PstI/HindIII fragment of viaA in antisense orientation; expresses antisense RNA (SEQ ID NO: 4) (nucleic acid)
antisense: CUGCAGGCUGAGGUGUUGCCCUUACAAAUGCAACAACGACAUGGAUUACAACACCCUCAUAAACAAAGGGCAAUCACCUGAUCUAAGCUCUUACCUAUGACAGUGAUAGGUUAUGCCUUUUACUCGACUUUUGCACUGACUGAAAAGGACAAAUUAAUGUUAAAAAAGAUACUUUUACUGGCUCUGCUUCCUGCAAUCGCCUUCGCAGAGGAACUUCCUGCUCCAGUAAAAGCGAUUGAAAAACAGGGCAUUACAAUCAUCAAAACAUUCGAUGCCCCCGGAGGAAUGAAAGGUUAUCUCGGAAAGUAUCAGGAUAUGGGCGUCACCAUCUACCUGACUCCAGAUGGUAAGCACGCUAUCUCUGGUUACAUGUACAACGAGAAAGGUGAAAACCUGAGUAACACACUUAUCGAAAAAGAAAUUUACGCACCAGCCGGACGCGAAAUGUGGCAACGGAUGGAACAAUCCCACUGGCUCCUCGACGGUAAAAAAGAUGCGCCGGUCAUUGUCUACGUCUUCGCCGAUCCGUUCUGCCCAUAUUGUAAACAGUUCUGGCAGCAGGCGCGCCCGUGGGUAGAUUCUGGCAAAGUGCAAUUAAGAACAUUGUUGGUUGGGGUUAUCAAGCCAGAAAGCCCGGCGACAGCAGCGGCAAUUCUUGCCUCCAAAGAUCCCGCAAAAACCUGGCAACAAUAUGAAGCCUCUGGUGGCAAGCUU
modifications: expressed from plasmid pLEX5BA; Escherichia coli viaA

Experiments:
[1] = test system: JRG58201; test: Growth and viability of ampG null strain after IPTG induction; type: cell-based, E. coli
Description: Lethality of pJB59 antisense RNA requires inhibition of orf1. The polycistronic mRNA that encodes ampG in E. coli has an upstream ORF, termed orf1 herein: The antisense RNA made by pJB59 is complementary to orf1. In order to determine whether translational inhibition of orf1 or of ampG was the cause of the lethality of pJB59 antisense RNA, pJB59 was transformed into the ampG null strain, JRG58201. Jacobs, C., et al, EMBO J. 13:4684-4694 (1993). JRG58201 has a defect in the ampG gene but has no known defect in the orf1 gene.

[2] = test system: E. coli DH5α; test: Colony formation on M9 agar with or without 1 mM IPTG (FIG. 6); type: cell-based; conditions: M9 agar containing 1 mM IPTG vs without IPTG
Procedure: FIG. 6 is a bar graph showing the effect of inducing lepB, ddlB, viaA or orf1 antisense RNA expression on colony formation in E. coli DH5α. Striped bars indicate colony forming units (CFUs) per ml of culture for strains grown on semi-solid media in the absence of the inducer IPTG. Solid bars indicate CFUs/ml for strains grown in the presence of IPTG.
Cell proliferation for each strain was measured by diluting overnight cultures 1:10^6 into M9 medium. After growth to an OD450 of 0.2, aliquots of each culture were plated on M9 agar without IPTG or M9 agar containing 1 mM IPTG. […] Colony formation by cells carrying pJB57 was inhibited more than 100 fold. The colony formation of strains carrying pJB59 was inhibited more than 1000 fold.

[3] = test system: E. coli DH5α; test: Growth curves (OD450) in liquid LB media with or without 1 mM IPTG (FIG. 7); type: cell-based
Procedure: FIG. 7 is a graph showing growth curves of E. coli DH5α containing pJB37, pJB57 and pJB59 in liquid media in the presence and absence of IPTG.
Inhibition of bacterial growth after IPTG induction. Growth curves were carried out by back diluting cultures 1:20 into fresh media with or without 1 mM IPTG and measuring the OD450 every 30 minutes (min). To study transcriptional induction in exponential phase, cultures were diluted 1:10^6 or as indicated. The viability (CFU/ml) was determined over time by plating aliquots of the culture on agar with or without IPTG.
Kinetics of inhibition during exponential growth by antisense RNA. The kinetics of antisense inhibition was examined for strains carrying pJB37, pJB53, pJB57 or pJB59. Overnight cultures of each strain were diluted 1:20 into LB media containing 1 mM IPTG or LB media without IPTG. The OD450 was then measured on the liquid cultures. […] After induction of antisense RNA expression, a few generations of cell division presumably are required in order to dilute endogenous gene product present at the initiation of induction.

[4] = test system: E. coli DH5α; test: Viability (CFUs/ml) over time after induction of antisense RNA expression (FIG. 8); type: cell-based
Procedure: FIG. 8 is a graph showing the viability of DH5α strains at various times after induction of antisense RNA expression. Strains contained the following plasmids: squares: pJB37; diamonds: pJB53; circles: pJB57; and triangles; pJB59.
Inhibition of viability by antisense RNA. The viability over time of the four strains expressing the antisense RNAs described above was also examined. Overnight cultures of each strain were diluted 1:100 into LB medium containing 1 mM IPTG. Aliquots of each culture were plated on LB agar containing ampicillin at intervals thereafter to determine CFUs/ml.

[5] = test system: E. coli DH5α; test: Effect of different concentrations of inducer IPTG on viability (FIG. 9); type: cell-based
Procedure: FIG. 9 is a graph showing the effect of varying concentrations of inducer on the viability of DH5α containing pJB37 (panel A) or pJB53 (panel B).
Effect of different concentrations of transcriptional inducer. Experiments were carried out to determine the effect of different concentrations of the inducer IPTG on bacterial growth and viability with the two clones where antisense RNA is bacteriocidal. Overnight cultures were diluted 1:100 into LB media containing 0, 10, 100 500 or 1000 micro molar (μM) IPTG. At the time of induction and every 2 hours thereafter, aliquots were plated on LB/ampicillin agar to determine CFUs/ml.

[6] = test system: Salmonella typhimurium; test: Growth of transformants plated on LB with or without 1 mM IPTG; type: cell-based
Procedure: In order to examine the effectiveness of the antisense RNAs in a related species, Salmonella typhimurium was transformed with pJB37 or pJB53. The ampicillin-resistant transformants were plated on LB with or without 1 mM IPTG.

Row | Molecule | growth and viability after IPTG induction [1] | inhibition of colony formation [2] | time after induction until significant effect on the increase in cell mass (OD450) ([3]; LB, 1 mM IPTG) | time after which cell mass stopped increasing (did not decrease) ([3]; LB, 1 mM IPTG) | bacteriocidal or bacteriostatic [4] | growth and viability when antisense RNA is expressed ([4]; 1 mM IPTG, LB) | effect on cell growth or colony formation when induced with IPTG [2] | time at which cell mass began to decrease ([3]; LB, 1 mM IPTG) | cell lysis, microscopic examination ([3]; after induction of antisense RNA) | reduction of viability ([4]; 6 hours after induction, 1 mM IPTG, LB) | effect on colony forming ability ([5]; 10 μm IPTG) | anti-proliferative effect ([5]; 500 μm IPTG) | effect on the time of cell death of a 2 fold increase of IPTG ([5]; 1000 μm IPTG) | growth after induction of the antisense RNA [6]
1 | B1 | inhibited | more than 1000 fold | about 3 hours | about 3 hours | bacteriostatic | growth is inhibited but viability is not reduced | – | – | – | – | – | – | – | –
2 | B2 | – | – | – | – | bacteriocidal | – | unable to form colonies | about 4 hours | did not | about 3 logs | minimal effect | near maximal | little effect | greatly inhibited
